This note sets out measurements from US20060204492A1 (published 2006).

Like-named read-outs stand apart in the source and are kept apart here.

Holding throughout (test): SPR (BIAcore), purified Fab over immobilized αvβ3
In assay [1] the target is T1, integrin αvβ3, purified from human placenta (human, UniProt P06756 31-1048; P05106 27-788).
T1 construct: mature; Native heterodimer, immobilized on ELISA plates or on the BIAcore chip; biotinylated in capture lift and capture ELISA screens; also called αvβ3 receptor; vitronectin receptor
T1 sequence (P06756 31-1048, form in doubt, chain 1 of 2): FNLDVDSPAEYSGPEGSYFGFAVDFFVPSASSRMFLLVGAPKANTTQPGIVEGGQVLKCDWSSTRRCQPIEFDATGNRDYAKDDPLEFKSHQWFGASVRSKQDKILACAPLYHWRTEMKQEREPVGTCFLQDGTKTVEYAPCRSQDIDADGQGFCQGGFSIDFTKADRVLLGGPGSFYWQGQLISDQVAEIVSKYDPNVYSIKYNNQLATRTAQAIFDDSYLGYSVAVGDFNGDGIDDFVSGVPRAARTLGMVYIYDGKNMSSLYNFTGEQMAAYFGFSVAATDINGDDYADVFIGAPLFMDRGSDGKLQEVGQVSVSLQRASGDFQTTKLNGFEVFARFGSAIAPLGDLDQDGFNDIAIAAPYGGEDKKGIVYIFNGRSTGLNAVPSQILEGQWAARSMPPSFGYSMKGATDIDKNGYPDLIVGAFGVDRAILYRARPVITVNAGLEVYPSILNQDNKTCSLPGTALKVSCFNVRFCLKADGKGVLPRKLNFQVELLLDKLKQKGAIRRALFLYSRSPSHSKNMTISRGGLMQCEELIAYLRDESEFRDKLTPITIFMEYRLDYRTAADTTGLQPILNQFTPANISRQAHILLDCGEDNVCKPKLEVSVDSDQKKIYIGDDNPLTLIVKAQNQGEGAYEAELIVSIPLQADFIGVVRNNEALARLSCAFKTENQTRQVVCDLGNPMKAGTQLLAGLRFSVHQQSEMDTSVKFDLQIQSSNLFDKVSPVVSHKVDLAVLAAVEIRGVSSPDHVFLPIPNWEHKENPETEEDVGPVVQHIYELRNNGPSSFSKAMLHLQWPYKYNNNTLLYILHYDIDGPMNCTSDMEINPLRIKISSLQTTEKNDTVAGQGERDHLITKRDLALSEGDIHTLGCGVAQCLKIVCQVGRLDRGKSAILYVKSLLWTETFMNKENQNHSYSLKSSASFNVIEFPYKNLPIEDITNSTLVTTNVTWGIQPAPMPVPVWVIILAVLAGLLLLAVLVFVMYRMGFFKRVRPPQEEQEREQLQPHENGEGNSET
T1 sequence (P05106 27-788, form in doubt, chain 2 of 2): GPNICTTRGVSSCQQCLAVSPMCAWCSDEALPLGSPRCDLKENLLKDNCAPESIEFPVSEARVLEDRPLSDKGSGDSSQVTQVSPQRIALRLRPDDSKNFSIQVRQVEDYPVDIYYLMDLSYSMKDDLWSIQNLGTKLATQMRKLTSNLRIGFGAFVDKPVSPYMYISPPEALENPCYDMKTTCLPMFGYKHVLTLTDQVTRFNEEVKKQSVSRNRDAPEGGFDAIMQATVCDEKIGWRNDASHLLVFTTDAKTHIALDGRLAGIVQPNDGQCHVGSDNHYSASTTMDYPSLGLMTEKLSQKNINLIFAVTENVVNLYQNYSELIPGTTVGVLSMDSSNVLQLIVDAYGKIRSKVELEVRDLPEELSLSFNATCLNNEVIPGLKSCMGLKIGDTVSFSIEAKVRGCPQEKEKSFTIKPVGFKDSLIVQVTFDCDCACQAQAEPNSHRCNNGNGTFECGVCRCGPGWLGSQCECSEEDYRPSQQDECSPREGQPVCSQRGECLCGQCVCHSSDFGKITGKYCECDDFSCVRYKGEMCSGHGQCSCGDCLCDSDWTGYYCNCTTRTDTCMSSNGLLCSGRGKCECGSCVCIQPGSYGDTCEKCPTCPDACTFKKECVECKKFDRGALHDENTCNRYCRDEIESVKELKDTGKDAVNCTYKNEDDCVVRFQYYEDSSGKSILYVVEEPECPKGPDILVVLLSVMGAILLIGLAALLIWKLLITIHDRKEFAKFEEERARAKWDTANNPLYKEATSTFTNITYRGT

Assay [2] concerns the target T1, integrin αvβ3, purified from human …. This is another data set of the same source.
Assay [3] has the same target. This is another data set of the same source.

B1: LM609 grafted antibody Fab (Fab, V domains shown)
VH: QVQLVESGGGVVQPGRSLRLSCAASGFTFSSYDMSWVRQAPGKGLEWVAKVSSGGGSTYYLDTVQGRFTISRDNSKNTLYLQMNSLRAEDTAVYYCARHNYGSFAYWGQGTTVTVSS
VL: EIVLTQSPATLSLSPGERATLSCQASQSISNHLHWYQQRPGQAPRLLIRYRSQSISGIPARFSGSGSGTDFTLTISSLEPEDFAVYYCQQSGSWPHTFGGGTKVEIK
notes: Fab expressed from M13 phage vector, human kappa chain, peptide tag on the carboxyl-terminus of the heavy chain; also called LM609 grafted Fab; parent LM609 grafted antibody
As for B1, in assay [1], the Kd is 27.6 nM, the koff came out at 0.00497 s⁻¹ and the kon was found to be 180000 M⁻¹ s⁻¹. In assay [2], this molecule yielded a Kd of 27.6 nM, a koff of 0.00497 s⁻¹ and a kon of 180000 M⁻¹ s⁻¹.

B2: LM609 grafted antibody combinatorial clone 8F9 (Fab, V domains shown)
VH: QVQLVESGGGVVQPGRSLRLSCAASGFTFSSYDMSWVRQAPGKGLEWVAKVSSGGGSTYYPDTVQGRFTISRDNSKNTLYLQMNSLRAEDTAVYYCARHNHGSFASWGQGTTVTVSS
VL: EIVLTQSPATLSLSPGERATLSCQASQSISNHLHWYQQRPGQAPRLLIRYRSQSISGIPARFSGSGSGTDFTLTISSLEPEDFAVYYCQQSGSWPLTFGGGTKVEIK
notes: Fab
For B2, the “fold slower dissociation rate than parent” value in assay [3] was greater than 10 fold. In assay [2], this molecule gave a Kd of 0.6 nM, a koff of 0.00028 s⁻¹ and a kon of 475000 M⁻¹ s⁻¹.

B3: LM609 grafted antibody combinatorial clone 56 (Fab, V domains shown)
VH: QVQLVESGGGVVQPGRSLRLSCAASGFTFSSYDMSWVRQAPGKGLEWVAKVSSGGGSTYYPDTVQGRFTISRDNSKNTLYLQMNSLRAEDTAVYYCARHNYGSFASWGQGTTVTVSS
VL: EIVLTQSPATLSLSPGERATLSCQASQSISNFLHWYQQRPGQAPRLLIRYRSQSISGIPARFSGSGSGTDFTLTISSLEPEDFAVYYCQQSGSWPHTFGGGTKVEIK
notes: Fab
For the molecule B3, the “fold slower dissociation rate than parent” value in assay [3] is greater than 10 fold. In assay [2], the Kd came to 0.5 nM, the koff stood at 0.000135 s⁻¹ and the kon is 266000 M⁻¹ s⁻¹.

B4: LM609 grafted antibody combinatorial clone 6G1 (Fab, V domains shown)
VH: QVQLVESGGGVVQPGRSLRLSCAASGFTFSSYDMSWVRQAPGKGLEWVAKVSSGGGSTYYPDTVQGRFTISRDNSKNTLYLQMNSLRAEDTAVYYCARHNYGSFASWGQGTTVTVSS
VL: EIVLTQSPATLSLSPGERATLSCQASQSISNHLHWYQQRPGQAPRLLIRYRSQSISGIPARFSGSGSGTDFTLTISSLEPEDFAVYYCQQSGSWPLTFGGGTKVEIK
notes: Fab
Turning to B4, in assay [3], the “fold greater association rate than parent” value lay in the range of 2 to 4 fold and the “fold slower dissociation rate than parent” value was greater than 10 fold. In addition, in assay [2], the Kd is 0.7 nM, the off-rate constant (koff) stood at 0.00028 s⁻¹ and the kon came out at 389000 M⁻¹ s⁻¹.

B5: LM609 grafted antibody combinatorial clone C29 (Fab, V domains shown)
VH: QVQLVESGGGVVQPGRSLRLSCAASGFTFSSYDMSWVRQAPGKGLEWVAKVSSGGGSTYYPDTVQGRFTISRDNSKNTLYLQMNSLRAEDTAVYYCARHNHGSFYSWGQGTTVTVSS
VL: EIVLTQSPATLSLSPGERATLSCQASQSISNHLHWYQQRPGQAPRLLIRYRSQSISGIPARFSGSGSGTDFTLTISSLEPEDFAVYYCQQSGSWPLTFGGGTKVEIK
notes: Fab
In the case of B5, in assay [3], the “fold greater affinity than parent LM609 grafted antibody” value is roughly 55 fold, the “fold greater association rate than parent” value fell in the range of 2 to 4 fold and the “fold slower dissociation rate than parent” value was greater than 10 fold. In assay [2], this molecule returned a Kd of 0.5 nM, a koff of 0.000343 s⁻¹ and a kon of 675000 M⁻¹ s⁻¹.

B6: LM609 grafted antibody combinatorial clone V357D (Fab, V domains shown)
VH: QVQLVESGGGVVQPGRSLRLSCAASGFTFSSYDMSWVRQAPGKGLEWVAKVSSGGGSTYYLDTVQGRFTISRDNSKNTLYLQMNSLRAEDTAVYYCARHNYGSFADWGQGTTVTVSS
VL: EIVLTQSPATLSLSPGERATLSCQASQSISNFLHWYQQRPGQAPRLLIRYRSQSISGIPARFSGSGSGTDFTLTISSLEPEDFAVYYCQQSGSWPHTFGGGTKVEIK
notes: Fab; V357D is a clone name, not a substitution
For B6, in assay [3], the “fold enhanced affinity over parent LM609 grafted antibody” value (from here on “fold enhanced affinity”) was greater than 50 fold and the “fold slower dissociation rate than parent” value was greater than 10 fold. In assay [2], this molecule showed an equilibrium dissociation constant (Kd) of 0.5 nM, a koff of 0.00014 s⁻¹ and a kon of 279000 M⁻¹ s⁻¹.

B7: LM609 grafted antibody combinatorial clone C59 (Fab, V domains shown)
VH: QVQLVESGGGVVQPGRSLRLSCAASGFTFSSYDMSWVRQAPGKGLEWVAKVSSGGGSTYYPDTVQGRFTISRDNSKNTLYLQMNSLRAEDTAVYYCARHNYGSFADWGQGTTVTVSS
VL: EIVLTQSPATLSLSPGERATLSCQASQSISNFLHWYQQRPGQAPRLLIRYRSQSISGIPARFSGSGSGTDFTLTISSLEPEDFAVYYCQQSGSWPHTFGGGTKVEIK
notes: Fab
With B7, the “fold slower dissociation rate than parent” value in assay [3] is greater than 10 fold. In assay [2], binding was characterised by a dissociation constant (Kd) of 0.5 nM, the koff is 0.000137 s⁻¹ and the kon worked out at 265000 M⁻¹ s⁻¹.

B8: LM609 grafted antibody combinatorial clone 6H6 (Fab, V domains shown)
VH: QVQLVESGGGVVQPGRSLRLSCAASGFTFSSYDMSWVRQAPGKGLEWVAKVSSGGGSTYYLDTVQGRFTISRDNSKNTLYLQMNSLRAEDTAVYYCARHNHGSFASWGQGTTVTVSS
VL: EIVLTQSPATLSLSPGERATLSCQASQSISNHLHWYQQRPGQAPRLLIRYRSQSISGIPARFSGSGSGTDFTLTISSLEPEDFAVYYCQQSGSWPLTFGGGTKVEIK
notes: Fab
On to B8, for which the “fold slower dissociation rate than parent” value in assay [3] is greater than 10 fold. Besides, in assay [2], binding was characterised by a dissociation constant (Kd) of 0.4 nM, the koff was 0.000187 s⁻¹ and the association rate constant (kon) stood at 504000 M⁻¹ s⁻¹.

B9: LM609 grafted antibody combinatorial clone 17 (Fab, V domains shown)
VH: QVQLVESGGGVVQPGRSLRLSCAASGFTFSSYDMSWVRQAPGKGLEWVAKVSSGGGSTYYLDTVQGRFTISRDNSKNTLYLQMNSLRAEDTAVYYCARHNYGSFASWGQGTTVTVSS
VL: EIVLTQSPATLSLSPGERATLSCQASQSISNFLHWYQQRPGQAPRLLIRYRSQSISGIPARFSGSGSGTDFTLTISSLEPEDFAVYYCQQSGSWPHTFGGGTKVEIK
notes: Fab
On to B9, for which, in assay [3], the “fold enhanced affinity” value was greater than 50 fold and the “fold slower dissociation rate than parent” value is greater than 10 fold. In assay [2], the Kd was determined as 0.5 nM, the off-rate constant (koff) turned out to be 0.000138 s⁻¹ and the kon worked out at 251000 M⁻¹ s⁻¹.

B10: LM609 grafted antibody combinatorial clone 2G4 (Fab, V domains shown)
VH: QVQLVESGGGVVQPGRSLRLSCAASGFTFSSYDMSWVRQAPGKGLEWVAKVSSGGGSTYYLDTVQGRFTISRDNSKNTLYLQMNSLRAEDTAVYYCARHNYGSFASWGQGTTVTVSS
VL: EIVLTQSPATLSLSPGERATLSCQASQSISNHLHWYQQRPGQAPRLLIRYRSQSISGIPARFSGSGSGTDFTLTISSLEPEDFAVYYCQQSGSWPLTFGGGTKVEIK
notes: Fab
As to B10, in assay [3], the “fold enhanced affinity” value was greater than 50 fold and the “fold slower dissociation rate than parent” value is greater than 10 fold. Also, in assay [2], the Kd was found to be 0.4 nM, the koff stood at 0.000229 s⁻¹ and the on-rate (kon) came out at 603000 M⁻¹ s⁻¹.

B11: LM609 grafted antibody combinatorial clone C176 (Fab, V domains shown)
VH: QVQLVESGGGVVQPGRSLRLSCAASGFTFSSYDMSWVRQAPGKGLEWVAKVSSGGGSTYYPDTVQGRFTISRDNSKNTLYLQMNSLRAEDTAVYYCARHNYGSFATWGQGTTVTVSS
VL: EIVLTQSPATLSLSPGERATLSCQASQSISNFLHWYQQRPGQAPRLLIRYRSQSISGIPARFSGSGSGTDFTLTISSLEPEDFAVYYCQQSGSWPHTFGGGTKVEIK
notes: Fab
For B11, the “fold slower dissociation rate than parent” value in assay [3] was greater than 10 fold. Moreover, in assay [2], binding was put at a Kd of 0.9 nM, the off-rate (koff) was 0.000192 s⁻¹ and the kon is 225000 M⁻¹ s⁻¹.

B12: LM609 grafted antibody combinatorial clone C37 (Fab, V domains shown)
VH: QVQLVESGGGVVQPGRSLRLSCAASGFTFSSYDMSWVRQAPGKGLEWVAKVSSGGGSTYYLDTVQGRFTISRDNSKNTLYLQMNSLRAEDTAVYYCARHNYGSFYEWGQGTTVTVSS
VL: EIVLTQSPATLSLSPGERATLSCQASQSISNHLHWYQQRPGQAPRLLIRYRSQSISGIPARFSGSGSGTDFTLTISSLEPEDFAVYYCQQSGSWPLTFGGGTKVEIK
notes: Fab
Turning to B12, in assay [3], the “fold greater affinity than LM609 grafted antibody Fab” value was roughly 90 fold, the “fold greater affinity than parent LM609 grafted antibody” value came to 92 fold and the “fold slower dissociation rate than parent” value is greater than 10 fold. In assay [2], the Kd came out at 0.3 nM, the off-rate constant (koff) is 0.000147 s⁻¹ and the kon was found to be 448000 M⁻¹ s⁻¹.

B13: LM609 grafted antibody combinatorial clone 7 (Fab, V domains shown)
VH: QVQLVESGGGVVQPGRSLRLSCAASGFTFSSYDMSWVRQAPGKGLEWVAKVSSGGGSTYYPDTVQGRFTISRDNSKNTLYLQMNSLRAEDTAVYYCARHNHGSFASWGQGTTVTVSS
VL: EIVLTQSPATLSLSPGERATLSCQASQSISNFLHWYQQRPGQAPRLLIRYRSQSISGIPARFSGSGSGTDFTLTISSLEPEDFAVYYCQQSGSWPHTFGGGTKVEIK
notes: Fab
Regarding B13, in assay [3], the “fold slower dissociation rate than parent” value was greater than 10 fold. For the same molecule, in assay [2], the affinity, expressed as Kd, was 1.2 nM; the koff was 0.000236 s⁻¹; the on-rate (kon) was determined as 204000 M⁻¹ s⁻¹.

B14: LM609 grafted antibody combinatorial clone C119 (Fab, V domains shown)
VH: QVQLVESGGGVVQPGRSLRLSCAASGFTFSSYDMSWVRQAPGKGLEWVAKVSSGGGSTYYPDTVQGRFTISRDNSKNTLYLQMNSLRAEDTAVYYCARHNYGSFASWGQGTTVTVSS
VL: EIVLTQSPATLSLSPGERATLSCQASQSISNHLHWYQQRPGQAPRLLIRYRSQSISGIPARFSGSGSGTDFTLTISSLEPEDFAVYYCQQSNSWPHTFGGGTKVEIK
notes: Fab
For the molecule B14, in assay [3], the “fold greater affinity than parent LM609 grafted antibody” value is 18 fold and the “fold slower dissociation rate than parent” value was greater than 10 fold. In assay [2], this molecule gave a Kd of 1.5 nM, a koff of 0.000316 s⁻¹ and a kon of 215000 M⁻¹ s⁻¹.

B15: LM609 grafted antibody combinatorial clone 6D1 (Fab, V domains shown)
VH: QVQLVESGGGVVQPGRSLRLSCAASGFTFSSYDMSWVRQAPGKGLEWVAKVSSGGGSTYYPDTVQGRFTISRDNSKNTLYLQMNSLRAEDTAVYYCARHNYGSFYSWGQGTTVTVSS
VL: EIVLTQSPATLSLSPGERATLSCQASQSISNHLHWYQQRPGQAPRLLIRYRSQSISGIPARFSGSGSGTDFTLTISSLEPEDFAVYYCQQSGSWPLTFGGGTKVEIK
notes: Fab
In the case of B15, the “fold slower dissociation rate than parent” value in assay [3] is greater than 10 fold. In assay [2], the dissociation constant Kd was found to be 0.4 nM, the koff amounted to 0.000158 s⁻¹ and the kon is 410000 M⁻¹ s⁻¹.
